Non-standard residues stand in square brackets, D forms with d. No end group written: not given here. Sar = CNCC(=O)O
T1: rat angiotensin 2 type 1 receptor (rat, UniProt P25095 1-359)
T1 sequence (looked up): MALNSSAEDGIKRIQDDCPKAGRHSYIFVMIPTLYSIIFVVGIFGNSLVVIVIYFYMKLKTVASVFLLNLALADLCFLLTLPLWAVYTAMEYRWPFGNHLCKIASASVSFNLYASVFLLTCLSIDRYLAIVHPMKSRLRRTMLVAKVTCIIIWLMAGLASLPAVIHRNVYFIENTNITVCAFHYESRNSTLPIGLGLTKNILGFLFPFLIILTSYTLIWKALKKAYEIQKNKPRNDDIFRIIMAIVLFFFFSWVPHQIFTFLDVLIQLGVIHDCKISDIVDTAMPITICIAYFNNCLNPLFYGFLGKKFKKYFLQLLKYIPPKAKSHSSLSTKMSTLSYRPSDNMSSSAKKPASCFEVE

T2: human angiotensin 2 type 1 receptor (human, UniProt P30556 1-359)
T2 sequence (looked up): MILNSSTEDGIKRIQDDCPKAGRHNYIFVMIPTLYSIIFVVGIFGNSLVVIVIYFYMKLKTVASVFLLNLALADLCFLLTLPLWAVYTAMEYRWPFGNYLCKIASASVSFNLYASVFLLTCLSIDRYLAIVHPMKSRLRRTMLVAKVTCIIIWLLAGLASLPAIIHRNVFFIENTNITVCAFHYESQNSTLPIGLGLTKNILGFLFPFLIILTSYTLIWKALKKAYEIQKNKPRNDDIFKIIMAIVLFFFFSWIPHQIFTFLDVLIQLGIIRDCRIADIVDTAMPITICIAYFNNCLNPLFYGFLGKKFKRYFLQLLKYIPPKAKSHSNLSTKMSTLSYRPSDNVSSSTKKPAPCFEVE

B1: SEQ ID NO: 55 (peptide)
peptide: [Sar]RVYVH-NH2
modifications: N-terminus assumed
SMILES: CNCC(=O)N[C@@H](CCCNC(=N)N)C(=O)N[C@H](C(=O)N[C@@H](Cc1ccc(O)cc1)C(=O)N[C@H](C(=O)N[C@@H](Cc1c[nH]cn1)C(N)=O)C(C)C)C(C)C
B2: SEQ ID NO: 53 (peptide)
peptide: [Sar]RVY[dA]HP-NH2
modifications: N-terminus assumed
SMILES: CNCC(=O)N[C@@H](CCCNC(=N)N)C(=O)N[C@H](C(=O)N[C@@H](Cc1ccc(O)cc1)C(=O)N[C@H](C)C(=O)N[C@@H](Cc1c[nH]cn1)C(=O)N1CCC[C@H]1C(N)=O)C(C)C

Each binder was assayed against T1, rat angiotensin 2 type 1 receptor (assay: cell-based or functional assay).

DRVYFHP (C-terminal amide (NH2)) [SEQ ID NO: 63] and DRVYFHP (N-Me-Asp (N-methyl-L-aspartic acid) at 1; C-terminal amide (NH2)) [SEQ ID NO: 65] cannot be ordered by “IP One EC50 (M)” value: over 1e-05 M for the first, over 1e-05 M for the second.

XRVYVHP (Sar (sarcosine) at 1) [SEQ ID NO: 54] and ERVYYHP (N-Me-Glu (N-methyl-L-glutamic acid) at 1; C-terminal amide (NH2)) [SEQ ID NO: 62] cannot be ordered by “IP One EC50 (M)” value: over 1e-05 M for the first, over 1e-05 M for the second.

RVYIHP (C-terminal amide (NH2)) [SEQ ID NO: 13] and ERVYFHP (C-terminal amide (NH2)) [SEQ ID NO: 64] cannot be ordered by “IP One EC50 (M)” value: over 1e-05 M for the first, over 1e-05 M for the second.

ERVYYHP (C-terminal amide (NH2)) [SEQ ID NO: 59] and DRVYYHP (N-Me-Asp (N-methyl-L-aspartic acid) at 1; C-terminal amide (NH2)) [SEQ ID NO: 61] cannot be ordered by “IP One EC50 (M)” value: over 1e-05 M for the first, over 1e-05 M for the second.

ERVYFHP (N-Me-Glu (N-methyl-L-glutamic acid) at 1; C-terminal amide (NH2)) [SEQ ID NO: 66] and B2 cannot be ordered by “IP One EC50 (M)” value: over 1e-05 M for the first, over 1e-05 M for the second.

ERVYYHP (D-Glu at 1; C-terminal amide (NH2)) [SEQ ID NO: 60] and ARVYIHPA (NM-D-Ala (N-methyl-D-alanine) at 1; D-Ala at 8) [SEQ ID NO: 82] cannot be ordered by “IP One EC50 (M)” value: over 1e-05 M for the first, over 1e-05 M for the second.

In order of rising “b-arrestin2 Max (%)” value:
1. B2  12.2%
2. ERVYFHP (C-terminal amide (NH2)) [SEQ ID NO: 64]  26.9%
3. ERVYYHP (C-terminal amide (NH2)) [SEQ ID NO: 59]  27.8%
4. ERVYYHP (N-Me-Glu (N-methyl-L-glutamic acid) at 1; C-terminal amide (NH2)) [SEQ ID NO: 62]  44.2%
5. DRVYFHP (C-terminal amide (NH2)) [SEQ ID NO: 63]  50.1%
6. ERVYFHP (N-Me-Glu (N-methyl-L-glutamic acid) at 1; C-terminal amide (NH2)) [SEQ ID NO: 66]  58.5%
7. DRVYYHP (N-Me-Asp (N-methyl-L-aspartic acid) at 1; C-terminal amide (NH2)) [SEQ ID NO: 61]  60.4%
8. ARVYIHPA (NM-D-Ala (N-methyl-D-alanine) at 1; D-Ala at 8) [SEQ ID NO: 82]  60.6%
9. DRVYYHP (C-terminal amide (NH2)) [SEQ ID NO: 57]  64.4%
10. DRVYFHP (N-Me-Asp (N-methyl-L-aspartic acid) at 1; C-terminal amide (NH2)) [SEQ ID NO: 65]  67.3%
11. ERVYYHP (D-Glu at 1; C-terminal amide (NH2)) [SEQ ID NO: 60]  79.3%
12. DRVYYHP (D-Asp at 1; C-terminal amide (NH2)) [SEQ ID NO: 58]  81.1%
13. XRVYVHP (Sar (sarcosine) at 1) [SEQ ID NO: 54]  83%
14. B1  95.6%
15. DRVYIHPG-OH [SEQ ID NO: 56]  98.5%
16. RVYIHP (C-terminal amide (NH2)) [SEQ ID NO: 13]  165%

In order of rising “IP One EC50” value:
1. B1  6.8 nM
2. DRVYIHPG-OH [SEQ ID NO: 56]  20 nM

In order of falling “IP One Max (%)” value:
1. B1  98.8%
2. DRVYIHPG-OH [SEQ ID NO: 56]  98.4%
3. DRVYYHP (C-terminal amide (NH2)) [SEQ ID NO: 57]  35.3%
4. DRVYYHP (D-Asp at 1; C-terminal amide (NH2)) [SEQ ID NO: 58]  9.94%

In order of falling “b-arrestin2 EC50” value:
1. ERVYFHP (N-Me-Glu (N-methyl-L-glutamic acid) at 1; C-terminal amide (NH2)) [SEQ ID NO: 66]  10000 nM
2. DRVYYHP (N-Me-Asp (N-methyl-L-aspartic acid) at 1; C-terminal amide (NH2)) [SEQ ID NO: 61]  2100 nM
3. B2  420 nM
4. DRVYYHP (D-Asp at 1; C-terminal amide (NH2)) [SEQ ID NO: 58]  260 nM
5. ERVYYHP (D-Glu at 1; C-terminal amide (NH2)) [SEQ ID NO: 60]  180 nM
6. DRVYIHPG-OH [SEQ ID NO: 56]  160 nM
7. B1  42 nM
8. XRVYVHP (Sar (sarcosine) at 1) [SEQ ID NO: 54]  17 nM

What follows are binders tested against T2, human angiotensin 2 type 1 receptor (assay: cell-based or functional assay).

DRVYFHP (C-terminal amide (NH2)) [SEQ ID NO: 63] and DRVYFHP (N-Me-Asp (N-methyl-L-aspartic acid) at 1; C-terminal amide (NH2)) [SEQ ID NO: 65] cannot be ordered by “IP One EC50 (M)” value: over 1e-05 M for the first, over 1e-05 M for the second.

DRVYYHP (D-Asp at 1; C-terminal amide (NH2)) [SEQ ID NO: 58] and XRVYVHP (Sar (sarcosine) at 1) [SEQ ID NO: 54] cannot be ordered by “IP One EC50 (M)” value: over 1e-05 M for the first, over 1e-05 M for the second.

ERVYYHP (N-Me-Glu (N-methyl-L-glutamic acid) at 1; C-terminal amide (NH2)) [SEQ ID NO: 62] and RVYIHP (C-terminal amide (NH2)) [SEQ ID NO: 13] cannot be ordered by “IP One EC50 (M)” value: over 1e-05 M for the first, over 1e-05 M for the second.

ERVYFHP (C-terminal amide (NH2)) [SEQ ID NO: 64] and ERVYYHP (C-terminal amide (NH2)) [SEQ ID NO: 59] cannot be ordered by “IP One EC50 (M)” value: over 1e-05 M for the first, over 1e-05 M for the second.

DRVYYHP (N-Me-Asp (N-methyl-L-aspartic acid) at 1; C-terminal amide (NH2)) [SEQ ID NO: 61] and ERVYFHP (N-Me-Glu (N-methyl-L-glutamic acid) at 1; C-terminal amide (NH2)) [SEQ ID NO: 66] cannot be ordered by “IP One EC50 (M)” value: over 1e-05 M for the first, over 1e-05 M for the second.

B2 and ERVYYHP (D-Glu at 1; C-terminal amide (NH2)) [SEQ ID NO: 60] cannot be ordered by “IP One EC50 (M)” value: over 1e-05 M for the first, over 1e-05 M for the second.

In the case of ARVYIHPA (NM-D-Ala (N-methyl-D-alanine) at 1; D-Ala at 8) [SEQ ID NO: 82], the “IP One EC50 (M)” value is reported as over 1e-05 M.

In order of falling “b-arrestin2 Max (%)” value:
1. DRVYIHPG-OH [SEQ ID NO: 56]  104%
2. B1  92.7%
3. XRVYVHP (Sar (sarcosine) at 1) [SEQ ID NO: 54]  58.6%
4. DRVYYHP (D-Asp at 1; C-terminal amide (NH2)) [SEQ ID NO: 58]  48.7%
5. ERVYYHP (D-Glu at 1; C-terminal amide (NH2)) [SEQ ID NO: 60]  44%
6. RVYIHP (C-terminal amide (NH2)) [SEQ ID NO: 13]  43.4%
7. DRVYYHP (C-terminal amide (NH2)) [SEQ ID NO: 57]  42.1%
8. ARVYIHPA (NM-D-Ala (N-methyl-D-alanine) at 1; D-Ala at 8) [SEQ ID NO: 82]  38.3%
9. DRVYFHP (N-Me-Asp (N-methyl-L-aspartic acid) at 1; C-terminal amide (NH2)) [SEQ ID NO: 65]  37.8%
10. DRVYYHP (N-Me-Asp (N-methyl-L-aspartic acid) at 1; C-terminal amide (NH2)) [SEQ ID NO: 61]  37.5%
11. DRVYFHP (C-terminal amide (NH2)) [SEQ ID NO: 63]  35.9%
12. B2  33.6%
13. ERVYFHP (N-Me-Glu (N-methyl-L-glutamic acid) at 1; C-terminal amide (NH2)) [SEQ ID NO: 66]  30.6%
14. ERVYYHP (N-Me-Glu (N-methyl-L-glutamic acid) at 1; C-terminal amide (NH2)) [SEQ ID NO: 62]  24.7%
15. ERVYFHP (C-terminal amide (NH2)) [SEQ ID NO: 64]  20.4%
16. ERVYYHP (C-terminal amide (NH2)) [SEQ ID NO: 59]  19.5%

In order of falling “IP One EC50” value:
1. DRVYIHPG-OH [SEQ ID NO: 56]  660 nM
2. B1  96 nM

In order of rising “IP One Max (%)” value:
1. DRVYYHP (C-terminal amide (NH2)) [SEQ ID NO: 57]  10%
2. DRVYIHPG-OH [SEQ ID NO: 56]  96.5%
3. B1  97.6%

In order of rising “b-arrestin2 EC50” value:
1. XRVYVHP (Sar (sarcosine) at 1) [SEQ ID NO: 54]  42 nM
2. B1  220 nM
3. DRVYYHP (D-Asp at 1; C-terminal amide (NH2)) [SEQ ID NO: 58]  330 nM
4. DRVYIHPG-OH [SEQ ID NO: 56]  550 nM
5. ERVYFHP (C-terminal amide (NH2)) [SEQ ID NO: 64]  1200 nM
6. DRVYYHP (N-Me-Asp (N-methyl-L-aspartic acid) at 1; C-terminal amide (NH2)) [SEQ ID NO: 61]  1200 nM
7. ERVYYHP (C-terminal amide (NH2)) [SEQ ID NO: 59]  1400 nM
8. B2  1600 nM

Source: patent US20100184701A1 (TREVENA, published 2010)
